# Reference: US5395750, “Methods for producing proteins which bind to predetermined antigens” (Hoffmann-La Roche Inc., dated 1995)
# B1: phage TR5 (anti-tat Fv, synthetic single chain antibody displayed on FUSE5 phage) (scFv)
# scFv: EVQLVESGRGLVQPGGSLRLSCAASGFTFSHFLVAWVRQAPGKGLEWVATYSMISRARVLDGSFNGRYTISRDDSKNTLYLQMNSLRAEDTAVYYCARIGSTHTIPRLSQYGGQGTLVTVSSGGGGSGGGGSGGGGSDIQMTQSPSSLSASVGDRVTITCKLRGPQPHAITWYQQKPGKAPKLLIYYDGQTLVGVPSRFSGSGSGTDFTPTISSLEPEDFATYYCTPTHKIDSPFGQGTKVEIKRT
# Molecular target: HIV-1 tat protein (HIV-1, UniProt P04608)
# Assay: phage binding to tat coated magnetic beads; TR5 also selected in 4 separate screening experiments
binder,measurement,value
B1,binding result,binds
